Values belong to the compound of their own block, whether it stands above or below them.
How the values were obtained:
[1] = target: CtHsp104 catalytic inactive double Walker A mutant (Chaetomium thermophilum); experiment: SEC; SEC profiles with elution volumes of marker proteins
[2] = target: T1, CtHsp104 (Thermochaetoides thermophila, UniProt G0S4G4, D295A/E296A); experiment: X-ray crystal structure, […] Å; assay type: binding; settings: ADP bound in AAA1 and AAA2 active sites; incubated with ADP and AlF3, 3 mM each; pH 5.8
T1 construct: gene CTHT_0022720; full-length, synthetic gene, pET21a, C-terminal His6 tag, E. coli; NTD not visible in the crystal structure

[3] = target: T2, ScHsp104 (Saccharomyces cerevisiae, UniProt P31539); experiment: coupled ATPase assay (pyruvate kinase / lactate dehydrogenase); assay type: biochemical; settings: 5 mM MgCl2; varying ATP; Hill fit
T2 construct: gene HSP104; cloned from yeast genomic DNA, pET21a, C-terminal His6 tag, E. coli

[4] = target: T3, CtHsp104 (Thermochaetoides thermophila, UniProt G0S4G4); experiment: as above; assay type: biochemical; settings: 5 mM MgCl2; varying ATP; Hill fit
T3 construct: gene CTHT_0022720; full-length, synthetic gene, pET21a, C-terminal His6 tag, E. coli; NTD not visible in the crystal structure

[5] = target: Hsp104 disaggregase from Chaetomium thermophilum, wild type (Chaetomium thermophilum); experiment: SEC; SEC profiles with elution volumes of marker proteins
[6] = target: CtHsp104 double Walker B mutant (Chaetomium thermophilum); experiment: as above

T2 sequence (P31539 whole entry): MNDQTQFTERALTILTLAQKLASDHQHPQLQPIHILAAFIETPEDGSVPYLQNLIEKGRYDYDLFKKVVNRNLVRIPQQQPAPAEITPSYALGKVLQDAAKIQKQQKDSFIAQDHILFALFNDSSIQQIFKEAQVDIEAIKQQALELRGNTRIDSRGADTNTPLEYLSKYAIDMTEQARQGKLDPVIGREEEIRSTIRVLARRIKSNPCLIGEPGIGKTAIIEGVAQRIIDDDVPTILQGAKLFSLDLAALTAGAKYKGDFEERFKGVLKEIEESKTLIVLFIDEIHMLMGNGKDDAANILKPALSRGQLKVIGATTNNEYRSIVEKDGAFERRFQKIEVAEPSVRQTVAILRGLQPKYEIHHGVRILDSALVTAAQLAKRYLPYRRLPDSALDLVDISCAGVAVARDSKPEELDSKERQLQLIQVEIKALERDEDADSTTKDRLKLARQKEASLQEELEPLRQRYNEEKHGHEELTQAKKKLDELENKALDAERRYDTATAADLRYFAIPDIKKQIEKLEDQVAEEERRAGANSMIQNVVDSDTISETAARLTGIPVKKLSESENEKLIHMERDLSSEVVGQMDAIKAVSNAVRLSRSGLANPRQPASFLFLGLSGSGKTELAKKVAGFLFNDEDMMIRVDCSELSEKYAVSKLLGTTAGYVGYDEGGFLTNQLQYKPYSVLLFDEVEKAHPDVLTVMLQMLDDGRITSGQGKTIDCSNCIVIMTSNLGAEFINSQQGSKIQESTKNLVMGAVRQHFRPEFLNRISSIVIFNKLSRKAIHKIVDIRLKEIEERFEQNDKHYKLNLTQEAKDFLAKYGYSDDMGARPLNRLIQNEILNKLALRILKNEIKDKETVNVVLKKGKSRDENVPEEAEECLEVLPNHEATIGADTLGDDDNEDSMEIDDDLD
T3 sequence (G0S4G4 entry or part of it): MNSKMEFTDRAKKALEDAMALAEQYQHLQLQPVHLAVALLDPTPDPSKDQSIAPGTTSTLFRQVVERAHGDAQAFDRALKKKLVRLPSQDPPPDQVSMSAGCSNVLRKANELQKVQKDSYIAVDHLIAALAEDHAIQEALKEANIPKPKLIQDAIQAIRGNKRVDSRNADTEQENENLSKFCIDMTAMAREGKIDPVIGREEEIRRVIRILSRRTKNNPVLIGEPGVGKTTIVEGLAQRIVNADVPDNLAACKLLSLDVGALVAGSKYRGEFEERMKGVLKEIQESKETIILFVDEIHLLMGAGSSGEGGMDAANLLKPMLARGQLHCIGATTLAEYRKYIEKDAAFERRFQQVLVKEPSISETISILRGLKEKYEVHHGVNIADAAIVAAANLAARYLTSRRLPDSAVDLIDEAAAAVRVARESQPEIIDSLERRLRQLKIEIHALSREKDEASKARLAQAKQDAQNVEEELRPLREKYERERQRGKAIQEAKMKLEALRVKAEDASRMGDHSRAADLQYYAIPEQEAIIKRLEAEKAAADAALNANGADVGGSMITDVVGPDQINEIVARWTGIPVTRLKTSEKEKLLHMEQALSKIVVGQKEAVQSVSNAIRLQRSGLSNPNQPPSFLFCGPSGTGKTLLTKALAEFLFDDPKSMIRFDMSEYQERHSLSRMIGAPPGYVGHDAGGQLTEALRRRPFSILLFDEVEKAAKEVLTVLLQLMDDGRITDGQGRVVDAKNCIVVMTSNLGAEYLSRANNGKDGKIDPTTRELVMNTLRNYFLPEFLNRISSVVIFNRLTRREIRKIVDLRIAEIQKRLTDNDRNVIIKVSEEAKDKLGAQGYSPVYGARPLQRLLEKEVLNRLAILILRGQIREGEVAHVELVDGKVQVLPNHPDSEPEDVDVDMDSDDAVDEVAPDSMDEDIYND
T1 sequence (G0S4G4 entry or part of it D295A/E296A): as the sequence (G0S4G4 entry or part of it) above, with D295A, E296A counted along it

Compound: Nc1ncnc2c1ncn2[C@@H]1O[C@H](COP(=O)(O)OP(=O)(O)O)[C@@H](O)[C@H]1O [ADP]
X-ray crystal structure, 3.7 Å [2]: The crystal structure of the double Walker-B mutant in complex with ADP was determined

Compound: Nc1ncnc2c1ncn2[C@@H]1O[C@H](COP(=O)(O)OP(=O)(O)OP(=O)(O)O)[C@@H](O)[C@H]1O [ATP]
coupled ATPase assay (pyruvate kinase / lactate dehydrogenase) [3]: ATPase and GFP unfolding activity of wt and ΔPS1 mutants of Ct and ScHsp104
coupled ATPase assay (pyruvate kinase / lactate dehydrogenase) [4]: ATPase activity was determined by a coupled enzymatic reaction

Compound: Hsp104 disaggregase from Chaetomium thermophilum, wild type (natural protein)
stoichiometry N [5]: 6

Results, then the compound that gave them:

stoichiometry N [1]: 6
Compound: CtHsp104 catalytic inactive double Walker A mutant (natural protein)

stoichiometry N [6]: 6
Compound: CtHsp104 double Walker B mutant (natural protein)

From article PMC5130295, “Structural basis for the disaggregase activity and regulation of Hsp104” (eLife, 2016)
